Paper PMC10126545 (2023)
Where “and” joins values, the source holds several entries; their conditions need not be identical. Equal values may be shown once.

How the values were obtained:
Experiment in all cases: BLI
[1] = target: COBRA P1 HA N127D mutant, CHO expressed, for binding assays
[2] = target: T1, COBRA P1 HA wild type, CHO expressed, for binding assays (glycosylation at Asn127)
[3] = target: T1, COBRA P1 HA wild type, CHO expressed, …; remark: listed apart in the source

B1: Fab 1F8 (recombinant Fab of the P1-elicited mouse monoclonal antibody 1F8) (Fab, V domains shown)
VH: QVQLQQSGAELMKPGASVKISCKATGYTFSSYWIEWVKQRPGHGLEWIGEILPGSGRTNYDERFKGKATFTADTSSNTAYMQLSSLTSEDSAVYYCARPRIYGMDYWGQGTSVTVSS
VL: DIVLTQSPASLAVSLGQRATISCKASQSVDFDGDTYMSWYQQKPGQPPKLLIYAASKLESGIPARFSGSGSGTDFTLNIHPVEEEDAATYFCQQSNEDPWTFGGGTKLEIK
Which koff [1] does the source give for B1 here?
The koff was 0.000855 s⁻¹.

What about the Kd [2] of the same binder?
The Kd was 2.56 nM and 3.35 nM.

And the koff [3]?
The koff was 0.000813 s⁻¹.
